Values joined by “and” are separate entries in the source; they are usually repeats but may differ in a detail not shown here. Equal entries are not always repeated.
Biological target: recombinant full length M2 protein of influenza virus A/Hong Kong/8/68 (H3N2) (influenza A virus A/Hong Kong/8/68 (H3N2))

With “recombinant full length M2 protein of influenza virus A/Hong Kong/8/68 (H3N2) (natural protein)” the stoichiometry N was 4 and 8.

Reference: publication PMC3229572
